From patent US6593454B2, “Methods for identifying inhibitors of methionine aminopeptidases” (Saint Louis University, priority 1999, dated 2003)

Assays:
[1] = substrate: CSCC[C@H](N)C(=O)NCC(=O)N1CCC[C@H]1C(=O)Nc1ccc([N+](=O)[O-])cc1; assay: AccQ-Tag assay, kinetic parameters of the substrate peptide with type 2 MAP; type: biochemical; conditions: other: human type 2 MAP; substrate Met-Gly-Pro-p-nitroanilide; mean ± SD
From the text: (§1) To determine whether Met-Gly-Pro-p-nitroanilide is a substrate for MAP, and whether the presence of dipeptidyl peptidase could affect the activity of MAP, an AccQ-Tag assay was used as described in Zuo et al., supra.

[2] = substrate: CSCC[C@H](N)C(=O)NCC(=O)N1CCC[C@H]1C(=O)Nc1ccc([N+](=O)[O-])cc1; assay: AccQ-Tag assay, kinetic parameters of the substrate peptide with type 1 MAP; type: biochemical; conditions: other: yeast type 1 MAP; substrate Met-Gly-Pro-p-nitroanilide; mean ± SD
From the text: as §1

Protein	Km [1] [mM]	kcat [1] [s⁻¹]	kcat/Km [1] [M⁻¹ s⁻¹]	Km [2] [mM]	kcat [2] [s⁻¹]	kcat/Km [2] [M⁻¹ s⁻¹]
human type 2 MAP (Homo sapiens) (protein) MAGVEEVAASGSHLNGDLDPDDREEGAASTAEEAAKKKRRKKKKSKGPSAAGEQEPDKESGASVDEVARQLERSALEDKERDEDDEDGDGDGDGATGKKKKKKKKKRGPKVQTDPPSVPICDLYPNGVFPKGQECEYPPTQDGRTAAWRTTSEEKKALDQASEEIWNDFREAAEAHRQVRKYVMSWIKPGMTMIEICEKLEDCSRKLIKENGLNAGLAFPTGCSLNNCAAHYTPNAGDTTVLQYDDICKIDFGTHISGRIIDCAFTVTFNPKYDTLLKAVKDATNTGIKCAGIDVRLCDVGEAIQEVMESYEVEIDGKTYQVKPIRNLNGHSIGQYRIHAGKTVPIVKGGEATRMEEGEVYAIETFGSTGKGVVHDDMECSHYMKNFDVGHVPIRLPRTKHLLNVINENFGTLAFCRRWLDRLGESKYLMALKNLCDLGIVDPYPPLCDIKGSYTAQFEHTILLRPTCKEVVSRGDDY	3 ± 0.5	8.63 ± 0.583	2870 ± 433			
yeast type 1 MAP (Saccharomyces cerevisiae S288C) (protein) MSTATTTVTTSDQASHPTKIYCSGLQCGRETSSQMKCPVCLKQGIVSIFCDTSCYENNYKAHKALHNAKDGLEGAYDPFPKFKYSGKVKASYPLTPRRYVPEDIPKPDWAANGLPVSEQRNDRLNNIPIYKKDQIKKIRKACMLGREVLDIAAAHVRPGITTDELDEIVHNETIKRGAYPSPLNYYNFPKSLCTSVNEVICHGVPDKTVLKEGDIVNLDVSLYYQGYHADLNETYYVGENISKEALNTTETSRECLKLAIKMCKPGTTFQELGDHIEKHATENKCSVVRTYCGHGVGEFFHCSPNIPHYAKNRTPGVMKPGMVFTIEPMINEGTWKDMTWPDDWTSTTQDGKLSAQFEHTLLVTEHGVEILTARNKKSPGGPRQRIK				4 ± 0.7	14.4 ± 0.417	3600 ± 583
